± gives the uncertainty stated by the source.
Assay: self-splicing fitness, log relative to wild type (ln ratio); higher = more splicing; Tetrahymena group I intron in knt gene, E. coli kanamycin selection, DiMSum; sequences stand for … in CUCUCU…GGAGGGAAAAGUUAUCAGGCAUGCACCUGGUAGCUAGUCUUUAAACCAAUAGAUUGCAUCGGUUUAAAAGGCAAGACCGUCAAAUUGCGGGAAAGGGGUCAACAGCCGUUCAGUACCAAGUCUCAGGGGAAACUUUGAGAUGGCCUUGCAAAGGGUAUGGUAAUAAGCUGACGGACAUGGUCCUAACCACGCAGCCAAGUCCUAAGUCAACAGAUCUUCUGUUGAUAUGGAUGCAGUUCACAGACUAAAUGUCGGUCGGGGAAGAUGUAUUCUUCUCAUAAGAUAUAGUCGGACCUCUCCUUAAUGGGAGCUAGCGGAUGAAGUGAUGCAACACUGGAGCCGCUGGGAACUAAUUUGUAUGCGAAAGUAUAUUGAUUAGUUUUGGAGUACUCGUGGUCG
Outline: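 Library with all eight P1ex-region intron nucleotides randomised, intron inside the knt kanamycin-resistance gene on pET-22b(+), in E. coli BL21(DE3). Cells grew overnight at 37°C or 30°C on LB agar with or without 25 μg/mL kanamycin (plus 100 μg/mL carbenicillin, 50 μM IPTG, 0.2% rhamnose), in six replicate transformations. Pooled colonies were amplicon-sequenced on Illumina HiSeq 2500. DiMSum fitness is the error-weighted combination of wild-type-normalised replicate fold changes, kanamycin versus none.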

| Sequence | self-splicing fitness (ln) (30 °C) | self-splicing fitness (ln) (37 °C) |
| --- | --- | --- |
| ACGAAGCAAUAUUACGCAGU | -3.29 ± 0.17 | -2.5 ± 0.2 |
| ACGAAGCAAUAUUACGCCCU | -0.468 ± 0.1 | 0.19 ± 0.12 |
| ACGAAGCAAUAUUACGCCUA | -1.93 ± 0.15 | -1.1 ± 0.12 |
| ACGAAGCAAUAUUACGCGAA | -2.07 ± 0.1 | -0.608 ± 0.097 |
| ACGAAGCAAUAUUACGCUUA | -1.81 ± 0.087 | -0.374 ± 0.083 |
| ACGAAGCAAUAUUACGCUUG | -1.4 ± 0.086 | -0.259 ± 0.098 |
| ACGAAGCAAUAUUACGGACC | -0.399 ± 0.17 | -0.661 ± 0.26 |
| ACGAAGCAAUAUUACGGAGG | -2.97 ± 0.16 | -1.69 ± 0.14 |
| ACGAAGCAAUAUUACGGAUC | -3.59 ± 0.12 | -1.47 ± 0.096 |
| ACGAAGCAAUAUUACGGCCC | -1.25 ± 0.2 | 0.0496 ± 0.26 |
| ACGAAGCAAUAUUACGGGUA | -1.72 ± 0.25 | -2.08 ± 0.17 |
| ACGAAGCAAUAUUACGGGUC | -4.49 ± 0.29 | -2.34 ± 0.23 |
| ACGAAGCAAUAUUACGUGGU | -3.5 ± 0.16 | -2.95 ± 0.15 |
| ACGAAGCAAUAUUACGUUAU | -3.54 ± 0.13 | -1.1 ± 0.1 |
| ACGCAGCAAUAUUACGAAAU | -2.55 ± 0.13 | -1.7 ± 0.15 |
| ACGCAGCAAUAUUACGAACU | -0.619 ± 0.062 | -0.501 ± 0.081 |
| ACGCAGCAAUAUUACGAAUA | – | -2.19 ± 0.23 |
| ACGCAGCAAUAUUACGACGA | -0.25 ± 0.1 | 0.113 ± 0.12 |
| ACGCAGCAAUAUUACGACGC | 0.036 ± 0.062 | 0.169 ± 0.082 |
| ACGCAGCAAUAUUACGACGG | -0.871 ± 0.051 | -0.191 ± 0.073 |
| ACGCAGCAAUAUUACGACGU | -3.11 ± 0.1 | -0.828 ± 0.097 |
| ACGCAGCAAUAUUACGAGAG | -3.3 ± 0.11 | -1.78 ± 0.1 |

| Sequence | self-splicing fitness (ln) (30 °C) | self-splicing fitness (ln) (37 °C) |
| --- | --- | --- |
| ACGCAGCAAUAUUACGAGCG | -1.54 ± 0.083 | -0.23 ± 0.1 |
| ACGCAGCAAUAUUACGAGGA | -2.8 ± 0.16 | -2.26 ± 0.17 |
| ACGCAGCAAUAUUACGAUCC | -2.24 ± 0.15 | -1.09 ± 0.17 |
| ACGCAGCAAUAUUACGAUCG | -0.15 ± 0.049 | 0.252 ± 0.071 |
| ACGCAGCAAUAUUACGAUGC | -3.44 ± 0.27 | -1.56 ± 0.21 |
| ACGCAGCAAUAUUACGCAAU | -1.76 ± 0.11 | -1.85 ± 0.15 |
| ACGCAGCAAUAUUACGCCAG | -2.82 ± 0.22 | -2.07 ± 0.28 |
| ACGCAGCAAUAUUACGCCGU | -3.33 ± 0.2 | -2.74 ± 0.27 |
| ACGCAGCAAUAUUACGCUCC | – | -0.96 ± 0.18 |
| ACGCAGCAAUAUUACGGAAA | -2.7 ± 0.33 | -0.506 ± 0.21 |
| ACGCAGCAAUAUUACGGACC | -1.95 ± 0.15 | 0.559 ± 0.18 |
| ACGCAGCAAUAUUACGGAUC | -1.86 ± 0.093 | -0.813 ± 0.13 |
| ACGCAGCAAUAUUACGGCAA | -0.804 ± 0.078 | -0.421 ± 0.084 |
| ACGCAGCAAUAUUACGGCAC | -0.763 ± 0.077 | -0.602 ± 0.11 |
| ACGCAGCAAUAUUACGGCUC | -0.489 ± 0.055 | -0.0273 ± 0.082 |
| ACGCAGCAAUAUUACGGGCC | -1.28 ± 0.091 | -0.893 ± 0.12 |
| ACGCAGCAAUAUUACGUCCA | -1.28 ± 0.11 | -1.13 ± 0.1 |
| ACGGAGCAAUAUUACGAAAG | -3.06 ± 0.31 | – |
| ACGGAGCAAUAUUACGAGUA | -2.03 ± 0.41 | -1.94 ± 0.33 |
| ACGGAGCAAUAUUACGAUCA | -2.77 ± 0.37 | -1.53 ± 0.24 |
| ACGGAGCAAUAUUACGAUUA | -2.6 ± 0.25 | -2.23 ± 0.29 |

From the supplement of paper PMC7877785
